Source: the supplement of paper PMC10567573

B1: LCOR (parent)
chain: PCAGSTSLSHSPGCSSTQGNGRPG
B2: PTPRD (parent)
chain: LTKLREMGREKCHQYWPAERSARY

Variants of: B1
Assay: protein stability index of a GFP-peptide fusion (GPS, HEK-293T) (PSI 1-6); higher = more stable
Conditions: c terminus: a fixed tail appended
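Also: lentivirally expressed fusions sorted by FACS into six bins by GFP to DsRed ratio, PSI derived from sequencing read proportions per bin multiplied by bin number.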

Protein stability index, by site and new letter:
C14: L 4.34 | F 4.71 | H 4.93 | R 3.86 | K 5.01 | V 4.85 | P 4.48
R22: M 3.78 | H 3.96 | E 4.55 | K 4.23 | F 3.37 | S 5.07
S5: D 4.27 | P 2.15 | M 2.9 | R 2.71 | A 2.98 | W 3.35 | K 4.35
G19: Q 3.64 | F 3.15 | R 2.32 | Y 2.5 | V 3.19 | E 3.8 | W 1.91 | D 3.91 | I 2.9 | H 2.32 | A 3.65 | C 2.56
S11: P 3.16 | K 2.81 | R 2.53 | A 2.63 | N 2.75 | Y 2.9 | I 2.18 | G 2.96 | M 3.28 | D 4
G21: T 2.1 | E 3.96 | S 2.81 | P 2.53 | I 3.54 | Q 3.36 | N 3.57 | W 2.34 | C 2.85 | Y 2.92 | K 3.79
H10: E 5.05 | S 4.29 | Q 4.94 | K 4.86 | I 3.89 | C 2.72 | L 4.39
T6: H 3.11 | R 4.93 | E 5.02 | K 2.71
P1: A 2.61 | S 3.12 | F 3.04 | H 2.48
L8: N 4.15 | P 4.24 | Y 4.95 | G 4.25
G24: I 3.09 | Y 2.61 | W 2.47 | M 2.82 | N 3.87 | A 3.38 | C 2.48 | E 2.65 | S 3.22 | P 3.42 | V 2.68 | R 3.07 | Q 3.37
G4: F 1.98 | S 3.56 | P 4.17 | E 4.2 | R 4.25 | H 3.52 | Q 4.2 | K 4.38
S16: M 2.22 | A 3 | F 2.87 | K 3.37 | N 3.53 | H 2.21
S7: H 2.42 | L 1.64 | F 2.72 | W 3.05 | Q 3.23 | Y 2.87 | N 3.43 | T 3.19
T17: H 3.36 | E 3.47 | P 3.51 | A 3.08 | F 1.81 | Y 2.28
P12: N 4.11 | D 4.35 | G 4.15 | T 4.1 | L 3.23 | M 3.12 | I 2.73 | Y 3.39 | F 1.91 | V 3.15
A3: K 4.69 | E 2.77 | T 3.06 | L 3.93
Q18: C 2.73 | S 3.55 | I 2.48 | K 3.77 | E 3.34 | G 3.53 | D 2.98 | Y 2.75
S15: M 2.95 | A 2.91 | I 2.8 | F 2.83 | Y 2.92 | H 2.4 | W 2.85 | V 3.3
G13: R 3.6 | N 3.61 | F 2.93 | D 3.23 | Y 2.53
P23: N 3.79 | E 3.39 | S 3.44 | K 3.78 | T 3.34 | A 3.78 | L 3.24
S9: Q 3.48 | R 1.04 | Y 1.89 | G 2.85 | W 2.66 | H 2.36 | K 3.62 | D 4.12 | P 3.79
N20: F 2.66 | S 3.1 | E 2.88 | R 3.07 | H 2.79 | T 2.35 | L 2.91 | D 3.44
C2: K 4.48 | L 4.76 | S 3.28

Variants of: B2
Assay: as above
Conditions: c terminus: a fixed tail appended

Protein stability index of substitutions, site by site:
A22: L 2.12 | K 2.65 | E 2.53 | Q 2.54 | T 3.02 | P 2.65 | V 2.64 | F 1.58 | D 2.4 | Y 2.23 | I 2.08 | N 2.57 | M 2.33 | S 2.16 | H 2.21 | W 1.83 | G 2.33 | C 2.15 | R 2.42
Y24: G 2.67 | W 2.46 | H 2.75 | R 2.7 | L 2.31 | S 3.01 | M 2.12 | Q 2.65 | F 2.21 | N 3.2 | D 3.55 | I 2.29 | T 2.35 | P 2.5 | C 2.65 | E 3.1 | V 2.41 | A 2.59 | K 3.02
R23: F 1.79 | I 1.99 | E 2.67 | P 3.02 | V 1.85 | G 2.38 | D 3.39 | T 2.4 | L 2.09 | W 1.68 | S 1.96 | Q 1.74 | N 2.24 | H 2.26 | K 2.49 | Y 1.6 | M 1.69 | C 2.06 | A 2.42
R20: Q 2.38 | N 2.62 | W 1.51 | V 2.03 | H 2.2 | L 2.34 | Y 2.33 | C 2.42 | A 2.05 | E 2.69 | G 2.88 | F 1.93 | P 2.77 | K 2.28 | I 1.86 | M 2.25 | T 2.66 | S 2.3 | D 2.92
E19: M 2.19 | F 2.29 | D 2.81 | Y 1.86 | N 2.46 | R 2.56 | T 2.21 | L 1.7 | V 1.67 | W 2.15 | Q 2.2 | I 1.91 | C 2.21 | P 2.29 | G 2.18 | H 2.06 | A 2.31 | S 2.29 | K 2.75
P17: Y 2.17 | H 1.75 | K 2.58 | N 1.84 | F 1.99 | I 2.25 | T 2.32 | A 2.12 | C 1.79 | S 2.09 | R 2.37 | Q 2.16 | G 2.29 | V 1.74 | D 2.79 | L 2.01 | M 1.97 | E 2.5 | W 2.04
A18: E 2.73 | C 2.31 | G 2.06 | H 2.19 | L 1.87 | S 2.17 | P 2.39 | N 2.16 | M 1.97 | F 2.21 | T 2.27 | R 2.13 | W 2.16 | I 2.21 | D 2.49 | K 2.48 | Q 2.53 | Y 1.97 | V 2.26
W16: Y 2.58 | S 2.84 | Q 3.26 | V 2.76 | R 3.29 | P 3.27 | T 2.6
S21: I 2.99 | P 2.24 | Y 2.61 | G 1.91 | A 2.58 | H 1.91 | D 2.83 | C 1.7 | T 2.77 | E 2.15 | K 2.72 | M 1.96 | F 2 | R 2.16 | N 2.17 | L 1.96 | V 2.17 | Q 2.08 | W 1.94
